This is an account of results in article PMC2441797.

The target of this data set is recombinant PARP-1 (rPARP-1) (UniProt P09874 1-1014). The data set can be described thus: Southwestern blot.
Chain of recombinant PARP-1 (rPARP-1) (P09874 whole entry): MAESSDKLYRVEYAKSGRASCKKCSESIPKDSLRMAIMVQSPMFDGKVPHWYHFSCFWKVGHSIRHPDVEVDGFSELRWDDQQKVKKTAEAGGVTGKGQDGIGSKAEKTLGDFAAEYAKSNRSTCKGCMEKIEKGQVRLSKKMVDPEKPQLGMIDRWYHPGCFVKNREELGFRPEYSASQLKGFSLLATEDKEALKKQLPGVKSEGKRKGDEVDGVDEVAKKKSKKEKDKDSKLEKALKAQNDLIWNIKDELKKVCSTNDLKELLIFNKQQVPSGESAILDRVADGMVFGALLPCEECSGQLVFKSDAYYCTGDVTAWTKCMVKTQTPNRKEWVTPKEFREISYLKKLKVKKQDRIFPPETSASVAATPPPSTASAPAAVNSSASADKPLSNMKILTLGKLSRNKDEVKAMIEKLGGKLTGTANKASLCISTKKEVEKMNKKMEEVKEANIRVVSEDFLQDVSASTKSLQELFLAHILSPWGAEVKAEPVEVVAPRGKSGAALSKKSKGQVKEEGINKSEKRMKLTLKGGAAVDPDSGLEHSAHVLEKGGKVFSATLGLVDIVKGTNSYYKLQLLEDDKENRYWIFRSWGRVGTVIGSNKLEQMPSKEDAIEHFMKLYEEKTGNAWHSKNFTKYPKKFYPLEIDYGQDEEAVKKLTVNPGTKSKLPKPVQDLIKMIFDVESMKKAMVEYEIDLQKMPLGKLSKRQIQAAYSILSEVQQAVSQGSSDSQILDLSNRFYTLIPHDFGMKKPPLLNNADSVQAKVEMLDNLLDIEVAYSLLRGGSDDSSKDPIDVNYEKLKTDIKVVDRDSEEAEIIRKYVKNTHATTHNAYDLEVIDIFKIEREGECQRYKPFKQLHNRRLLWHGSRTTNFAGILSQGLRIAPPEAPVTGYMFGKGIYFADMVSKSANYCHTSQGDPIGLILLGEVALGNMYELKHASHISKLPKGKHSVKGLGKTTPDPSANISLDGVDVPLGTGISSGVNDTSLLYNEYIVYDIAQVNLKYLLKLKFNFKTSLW

B1: 32R (KRAS NHE G-quadruplex), radiolabelled (structured_DNA)
DNA: AGGGCGGTGTGGGAAGAGGGAAGAGGGGGAGG
B1: the binding result was “binds”.
